Assay results reported in the supplement of paper PMC5998384.

Tests used:
[1] = tested on: HeLa Kyoto; assay: solubility in G1/S (NP-40 vs SDS abundance) (log2 ratio); higher = more soluble; conditions: cell cycle stage: G1/S
[2] = tested on: HeLa Kyoto; assay: solubility change mitosis vs G1/S (difference of NP-40 vs SDS log2 ratios) (log2 ratio difference); higher = more soluble in mitosis
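For solubility change mitosis vs G1/S (difference of NP-40 vs SDS log2 ratios) in this document: synchronized HeLa Kyoto cells (double thymidine block for G1/S, nocodazole release for mitosis), protein amounts in NP-40 versus SDS lysates quantified by mass spectrometry, three biological replicates.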
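For solubility in G1/S (NP-40 vs SDS abundance) in this document: HeLa Kyoto cells arrested at G1/S by double thymidine block, proteins quantified by TMT10plex mass spectrometry in mild NP-40 versus SDS extracts, three biological replicates.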

Sequence | solubility in G1/S (log2) [1] | solubility change mitosis (log2) [2]
MNFEGLDPGLAEYAPAMHSALDPVLDAHLNPSLLQNVELDPEGVALEALPVQESVHIMEGVYSELHSVVAEVGVPVSVSHFDLHEEMLWVGSHGGHATSFFGPALERYSSFQVNGSDDIRQIQSLENGILFLTKNNLKYMARGGLIIFDYLLDENEDMHSLLLTDSSTLLVGGLQNHIIEIDLNTVQETQKYAVETPGVTIMRQTNRFFFCGHTSGKVSLRDLRTFKVEHEFDAFSGSLSDFDVHGNLLAACGFSSRLTGLACDRFLKVYDLRMMRAITPLQVHVDPAFLRFIPTYTSRLAIISQSGQCQFCEPTGLANPADIFHVNPVGPLLMTFDVSASKQALAFGDSEGCVHLWTDSPEPSFNPYSRETEFALPCLVDSLPPLDWSQDLLPLSLIPVPLTTDTLLSDWPAANSAPAPRRAPPVDAEILRTMKKVGFIGYAPNPRTRLRNQIPYRLKESDSEFDSFSQVTESPVGREEEPHLHMVSKKYRKVTIKYSKLGLEDFDFKHYNKTLFAGLEPHIPNAYCNCMIQVLYFLEPVRCLIQNHLCQKEFCLACELGFLFHMLDLSRGDPCQGNNFLRAFRTIPEASALGLILADSDEASGKGNLARLIQRWNRFILTQLHQDMQELEIPQAYRGAGGSSFCSSGDSVIGQLFSCEMENCSLCRCGSETVRASSTLLFTLSYPDGSKSDKTGKNYDFAQVLKRSICLDQNTQAWCDTCEKYQPTIQTRNIRHLPDILVINCEVNSSKEADFWRMQAEVAFKMAVKKHGGEISKNKEFALADWKELGSPEGVLVCPSIEELKNVWLPFSIRMKMTKNKGLDVCNWTDGDEMQWGPARAEEEHGVYVYDLMATVVHILDSRTGGSLVAHIKVGETYHQRKEGVTHQQWYLFNDFLIEPIDKHEAVQFDMNWKVPAILYYVKRNLNSRYNLNIKNPIEASVLLAEASLARKQRKTHTTFIPLMLNEMPQIGDLVGLDAEFVTLNEEEAELRSDGTKSTIKPSQMSVARITCVRGQGPNEGIPFIDDYISTQEQVVDYLTQYSGIKPGDLDAKISSKHLTTLKSTYLKLRFLIDIGVKFVGHGLQKDFRVINLMVPKDQVLDTVYLFHMPRKRMISLRFLAWYFLDLKIQGETHDSIEDARTALQLYRKYLELSKNGTEPESFHKVLKGLYEKGRKMDWKVPEPEGQTSPKNAAVFSSVLAL [PAN2] | -0.18 | 0.206
MNGPADGEVDYKKKYRNLKRKLKFLIYEHECFQEELRKAQRKLLKVSRDKSFLLDRLLQYENVDEDSSDSDATASSDNSETEGTPKLSDTPAPKRKRSPPLGGAPSPSSLSLPPSTGFPLQASGVPSPYLSSLASSRYPPFPSDYLALQLPEPSPLRPKREKRPRLPRKLKMAVGPPDCPVGGPLTFPGRGSGAGVGTTLTPLPPPKMPPPTILSTVPRQMFSDAGSGDDALDGDDDLVIDIPE [INO80E] | 0.135 | 0.288
MNGTRNWCTLVDVHPEDQAAGSVDILRLTLQGELTGDELEHIAQKAGRKTYAMVSSHSAGHSLASELVESHDGHEEIIKVYLKGRSGDKMIHEKNINQLKSEVQYIQEARNCLQKLREDISSKLDRNLGDSLHRQEIQVVLEKPNGFSQSPTALYSSPPEVDTCINEDVESLRKTVQDLLAKLQEAKRQHQSDCVAFEVTLSRYQREAEQSNVALQREEDRVEQKEAEVGELQRRLLGMETEHQALLAKVREGEVALEELRSNNADCQAEREKAATLEKEVAGLREKIHHLDDMLKSQQRKVRQMIEQLQNSKAVIQSKDATIQELKEKIAYLEAENLEMHDRMEHLIEKQISHGNFSTQARAKTENPGSIRISKPPSPKPMPVIRVVET [TUFT1] | 0.415 | 0.112
MNQFGPSALINLSNFSSIKPEPASTPPQGSMANSTAVVKIPGTPGAGGRLSPENNQVLTKKKLQDLVREVDPNEQLDEDVEEMLLQIADDFIESVVTAACQLARHRKSSTLEVKDVQLHLERQWNMWIPGFGSEEIRPYKKACTTEAHKQRMALIRKTTKK [TAF12] | -0.0469 | 0.151
MNRVLCAPAAGAVRALRLIGWASRSLHPLPGSRDRAHPAAEEEDDPDRPIEFSSSKANPHRWSVGHTMGKGHQRPWWKVLPLSCFLVALIIWCYLREESEADQWLRQVWGEVPEPSDRSEEPETPAAYRART [CCSMST1] | -0.299 | 0.566
MPDQALQQMLDRSCWVCFATDEDDRTAEWVRPCRCRGSTKWVHQACLQRWVDEKQRGNSTARVACPQCNAEYLIVFPKLGPVVYVLDLADRLISKACPFAAAGIMVGSIYWTAVTYGAVTVMQVVGHKEGLDVMERADPLFLLIGLPTIPVMLILGKMIRWEDYVLRLWRKYSNKLQILNSIFPGIGCPVPRIPAEANPLADHVSATRILCGALVFPTIATIVGKLMFSSVNSNLQRTILGGIAFVAIKGAFKVYFKQQQYLRQAHRKILNYPEQEEA [MARCH5] | -0.272 | 0.0312
MPGAGARAEEGGGGGEGAAQGAAAEPGAGPAREPARLCGYLQKLSGKGPLRGYRSRWFVFDARRCYLYYFKSPQDALPLGHLDIADACFSYQGPDEAAEPGTEPPAHFQVHSAGAVTVLKAPNRQLMTYWLQELQQKRWEYCNSLDMVKWDSRTSPTPGDFPKGLVARDNTDLIYPHPNASAEKARNVLAVETVPGELVGEQAANQPAPGHPNSINFYSLKQWGNELKNSMSSFRPGRGHNDSRRTVFYTNEEWELLDPTPKDLEESIVQEEKKKLTPEGNKGVTGSGFPFDFGRNPYKGKRPLKDIIGSYKNRHSSGDPSSEGTSGSGSVSIRKPASEMQLQVQSQQEELEQLKKDLSSQKELVRLLQQTVRSSQYDKYFTSSRLCEGVPKDTLELLHQKDDQILGLTSQLERFSLEKESLQQEVRTLKSKVGELNEQLGMLMETIQAKDEVIIKLSEGEGNGPPPTVAPSSPSVVPVARDQLELDRLKDNLQGYKTQNKFLNKEILELSALRRNAERRERDLMAKYSSLEAKLCQIESKYLILLQEMKTPVCSEDQGPTREVIAQLLEDALQVESQEQPEQAFVKPHLVSEYDIYGFRTVPEDDEEEKLVAKVRALDLKTLYLTENQEVSTGVKWENYFASTVNREMMCSPELKNLIRAGIPHEHRSKVWKWCVDRHTRKFKDNTEPGHFQTLLQKALEKQNPASKQIELDLLRTLPNNKHYSCPTSEGIQKLRNVLLAFSWRNPDIGYCQGLNRLVAVALLYLEQEDAFWCLVTIVEVFMPRDYYTKTLLGSQVDQRVFRDLMSEKLPRLHGHFEQYKVDYTLITFNWFLVVFVDSVVSDILFKIWDSFLYEGPKVIFRFALALFKYKEEEILKLQDSMSIFKYLRYFTRTILDARKLISISFGDLNPFPLRQIRNRRAYHLEKVRLELTELEAIREDFLRERDTSPDKGELVSDEEEDT [TBC1D2B] | -0.186 | -0.0456
MPGEEEERAFLVAREELASALRRDSGQAFSLEQLRPLLASSLPLAARYLQLDAARLVRCNAHGEPRNYLNTLSTALNILEKYGRNLLSPQRPRYWRGVKFNNPVFRSTVDAVQGGRDVLRLYGYTEEQPDGLSFPEGQEEPDEHQVATVTLEVLLLRTELSLLLQNTHPRQQALEQLLEDKVEDDMLQLSEFDPLLREIAPGPLTTPSVPGSTPGPCFLCGSAPGTLHCPSCKQALCPACDHLFHGHPSRAHHLRQTLPGVLQGTHLSPSLPASAQPRPQSTSLLALGDSSLSSPNPASAHLPWHCAACAMLNEPWAVLCVACDRPRGCKGLGLGTEGPQGTGGLEPDLARGRWACQSCTFENEAAAVLCSICERPRLAQPPSLVVDSRDAGICLQPLQQGDALLASAQSQVWYCIHCTFCNSSPGWVCVMCNRTSSPIPAQHAPRPYASSLEKGPPKPGPPRRLSAPLPSSCGDPEKQRQDKMREEGLQLVSMIREGEAAGACPEEIFSALQYSGTEVPLQWLRSELPYVLEMVAELAGQQDPGLGAFSCQEARRAWLDRHGNLDEAVEECVRTRRRKVQELQSLGFGPEEGSLQALFQHGGDVSRALTELQRQRLEPFRQRLWDSGPEPTPSWDGPDKQSLVRRLLAVYALPSWGRAELALSLLQETPRNYELGDVVEAVRHSQDRAFLRRLLAQECAVCGWALPHNRMQALTSCECTICPDCFRQHFTIALKEKHITDMVCPACGRPDLTDDTQLLSYFSTLDIQLRESLEPDAYALFHKKLTEGVLMRDPKFLWCAQCSFGFIYEREQLEATCPQCHQTFCVRCKRQWEEQHRGRSCEDFQNWKRMNDPEYQAQGLAMYLQENGIDCPKCKFSYALARGGCMHFHCTQCRHQFCSGCYNAFYAKNKCPEPNCRVKKSLHGHHPRDCLFYLRDWTALRLQKLLQDNNVMFNTEPPAGARAVPGGGCRVIEQKEVPNGLRDEACGKETPAGYAGLCQAHYKEYLVSLINAHSLDPATLYEVEELETATERYLHVRPQPLAGEDPPAYQARLLQKLTEEVPLGQSIPRRRK [RNF31] | -0.0767 | -0.0502
